Substitutions are numbered along the chain they refer to.
Key:
cynomolgus monkey IL-6 = biological target: T1, cynomolgus monkey IL-6 (Macaca fascicularis, UniProt P79341); assay: Surface plasmon resonance (Biacore), cynomolgus monkey IL-6; assay type: binding; settings: purified chain-shuffled Fabs
T1 construct: His
Experimental: (§1) VL chain shuffling was used to improve the affinity of the Fabs 17F10, 18C7, 18C9, 18C11, 20A4, 29B11, 16D2 and 28A6. In this method, the heavy chain of these clones (as a VHCH1 fragment) was reintroduced into the primary phagemid-light chain library (see Example 1). Affinity selections were performed to select for chain shuffled Fabs with an improved affinity for IL-6. The binding kinetics of chain shuffled Fabs were evaluated by surface plasmon resonance (Biacore) using both bacterially and eukaryotically produced human IL-6, and cynomolgus monkey IL-6 (Tables 5-7). The VH and VL amino acid sequences of exemplary IL-6-specific Fabs selected by the VL chain shuffling method are set forth in Table 14 below.

[1] = biological target: T2, eukaryotically produced human IL-6 (Homo sapiens, UniProt P05231); assay: Surface plasmon resonance (Biacore), eukaryotically produced human IL-6 coated on CM5 chip; assay type: binding
T2 construct: purchased Humanzyme HZ-1044; host or cells: Human Embryonic kidney cells
Experimental: (§2) The binding kinetics of IL-6-specific Fabs that were able to cross-compete with the B-E8 antibody was assessed using surface plasmon resonance (Biacore). Specifically, biotinylated (prokaryotic) IL-6 was captured on a streptavidin biacore sensor chip (CM5-SA) and different concentrations of purified Fabs were injected during 3 minutes following by a 5 minute wash with buffer. From the washing phase the off-rate (kd) was determined, while from the injection phase the on-rate (ka) was calculated using the concentration and off-rate as parameters. […] The binding kinetics of antagonistic purified Fabs (Table 3) and periplasmic fractions of Fab-expressing bacteria (Table 4) were also evaluated by surface plasmon resonance (Biacore) using both bacterially and eukaryotically produced human IL-6 directly coated on a CM5 chip. The Fabs tested had off-rates between 6×10^−4 and 2×10^−5 s^−1.
as §1
(§3) VH chain shuffling was also used to improve the affinity of the Fab 24D10. In this method, the light chain of 24D10 was reintroduced into the primary phagemid-heavy chain library (see Example 1) and selected using an off-rate assay. In this type of selection, the phage were allowed to bind to antigen on a substrate for 1.5 to 2 hours. At round 2, after 15 washes with PBS-Tween, an additional wash was performed with the presence of excess soluble IL-6. […] This procedure avoids re-binding of such phage to the coated target. […] The binding kinetics of chain shuffled Fabs and the benchmark antibodies, BE8 and GL18, were evaluated by surface plasmon resonance (Biacore) using both bacterially and eukaryotically produced human IL-6 (Tables 8 and 9). The VH and VL amino acid sequences of exemplary IL-6-specific Fabs selected by the VH chain shuffling method are set forth in Table 14 below. […]

[2] = biological target: biotinylated (prokaryotic) IL-6 (Homo sapiens, UniProt P05231); assay: Surface plasmon resonance (Biacore), biotinylated IL-6 captured on streptavidin sensor chip; assay type: binding; settings: purified Fab
Experimental: as §2

[3] = biological target: T3, bacterially produced human IL-6 (Homo sapiens, UniProt P05231); assay: Surface plasmon resonance (Biacore), bacterially produced human IL-6 coated on CM5 chip; assay type: binding; settings: Bact; purified 24D10 chain-shuffled Fabs
T3 construct: His
Experimental: as §2, §1, §3

IL-6 = assay: Serum amyloid A (SAA) mouse model, induction by injected IL-6; assay type: in vivo; design: SAA, Mean / SAA, Mouse1 / SAA, Mouse2 / SAA, Mouse3 / SAA, Mouse4 / SAA, Mouse5 / SAA, Mouse6: unit not given here; settings: 0.1 μg IL-6; for SAA, Mean: mean of 6 mice
Experimental: The in vivo efficacy of clones 68F2 and 61H7 was further investigated by measuring the ability of these antibodies to block serum amyloid A (SAA) induction in response to injected IL-6. General methods for performing this assay are set forth in WO2006/119115A2, which is hereby incorporated by reference in its entirety. […] Four hours after administration of the antibody, the mice were injected with 0.1 ug of IL-6. After a further 16 hours, blood was taken from the mice and the concentration of Serum Amyloid A was determined by ELISA. The dose responses are also graphically depicted in FIG. 13.

[4] = Euk IL-6, purified 24D10 chain-shuffled Fabs

T2 sequence (P05231 30-212): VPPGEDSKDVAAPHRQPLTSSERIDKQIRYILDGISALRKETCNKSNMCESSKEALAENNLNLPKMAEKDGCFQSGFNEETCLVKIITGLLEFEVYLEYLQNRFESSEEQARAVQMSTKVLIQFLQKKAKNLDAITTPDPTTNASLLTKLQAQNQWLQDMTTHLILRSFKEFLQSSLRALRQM
Chain of biotinylated (prokaryotic) IL-6 (P05231 30-212): as above
T3 sequence (P05231 30-212): as above
T1 sequence (P79341 28-212): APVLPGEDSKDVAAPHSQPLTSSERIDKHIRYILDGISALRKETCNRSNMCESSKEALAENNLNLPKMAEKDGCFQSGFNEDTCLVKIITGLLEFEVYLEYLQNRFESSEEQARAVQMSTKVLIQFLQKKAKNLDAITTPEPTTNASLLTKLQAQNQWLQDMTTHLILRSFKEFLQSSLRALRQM

B1: 41B5: light chain shuffled Fab of parental 17F10 (antibody, V domains shown)
VH: EVQLQESGPGLVKPSQTLSLTCTVSGGSIATSYYAWSWIRQPPGKGLEWMGVIDYDGDTYYKPSLKSRTSISRDTSKNQFSLQLSSVTPEDTAVYYCARAGLGDSYYLGTYYAMDYWGKGTLVTVSS
VL: QSALTQPPSMSGTLGKTLTISCNGTSSDIGSGDYVSWYQQLPGTTPKLLIEGVTTRASGIPDRFSASKSDNTASLTISGLQSEDEATYYCASYRETNNVVFGGGTHLTVLS
Koff HIS-cyIL-6 (cynomolgus monkey IL-6): 0.00017 s⁻¹ | Koff eukIL-6 ([1]; purified chain-shuffled Fabs): 0.0002 s⁻¹

B2: 28C6: antagonistic IL-6-specific Fab clone from immunized llama (antibody, listed as Lama glama, V domains shown)
VH: QVQLVESGGGLVQPGGSLRLSCAASGFTFSNYYMTWVRQAPGKGLEWVSSIYSFSGDTAYADSVKGRFTISRDNAKNTLYLQMNKLKSEDTAVYYCTRDLGGVVVTANGYDYWGQGTQVTVSS
VL: DIVMTQTPSSLSASLGDRVTITCQASQSISTELSWYQQKPGQTPKLLIYGASRLQTGVPARFSGSGSGTSFTLTISGLEAEDLATYYCLQDYSWPYSFGSGTRL
KA [2]: 4.04e+07 M⁻¹ | Rmax [2]: 22.6 RU | ka [2]: 101000 M⁻¹ s⁻¹ | kd [2]: 0.0025 s⁻¹

B3: 20A4: antagonistic IL-6-specific Fab clone, parental of 68F2 (antibody, listed as Lama glama, V domains shown)
VH: EVQLQESGPGLVKPSQTLSLTCTVSGGSITTRYYAWSWIRQPPGKGLEWMGVIDYDGDTYYSPSLKSRTSISWDTSKNQFSLQLSSVTPEDTAVYYCARDPDVVTGFHYDYWGQGTQVTVSS
VL: ALNFMLTQPPSVSGTLGKTVTISCAGTSSDIGGYNYVSWYQQLPGTAPKLLIHRVSTRASGIPDRFSGSKSGNTASLTISGLRSEDEANYYCASYRNFNNAVFGGGTQLTVLG
KA [2]: 1.72e+08 M⁻¹ | Rmax [2]: 48.2 RU | ka [2]: 288000 M⁻¹ s⁻¹ | kd [2]: 0.00168 s⁻¹

B4: 24C9: antagonistic IL-6-specific Fab clone from immunized llama (antibody, listed as Lama glama, V domains shown)
VH: QVQLVESGGGLVQPGGSLRLSCAASGFTFSSYRMYWVRQPPGKGLEWVSAISAGGGSTYYGDSVKGRFTISRDNAKNTVYLQMNSLKPEDTALYYCKKSTWADGESDYWGQGTQVTVSS
VL: QTVVTQEPSLSVSPGGTVTLTCGLSSGSVTASNYPGWFQQTPGQAPRALIYSTNDRHSGVPSRFSGSISGNKAALTITGAQPEDEADYYCALDIGDITEFGGGTHLTVLG
KA [2]: 1.51e+09 M⁻¹ | Rmax [2]: 38.1 RU | ka [2]: 133000 M⁻¹ s⁻¹ | kd [2]: 8.77e-05 s⁻¹ | off-rates (range) [2]: ~10^−5 s^−1 | Kd ([2]; read-out: affinities): 0.66 nM

B5: 24E9: antagonistic IL-6-specific Fab clone from immunized llama (antibody, listed as Lama glama, V domains shown)
VH: EVQLVESGGGLVQPGGSLRLSCAASGFTFSTYAMSWVRQAPGKGPEWVSRISSGGGSTNYADSVKGRFTISRDNAKKTLYLQMKSLKPEDTAVYYCANRAGWGMGDYWGQGTQVTVSS
VL: B4 VL
KA [2]: 8.38e+08 M⁻¹ | Rmax [2]: 41 RU | ka [2]: 117000 M⁻¹ s⁻¹ | kd [2]: 0.000139 s⁻¹

B6: 24D10: antagonistic IL-6-specific Fab clone, parental of 61H7 (antibody, listed as Lama glama, V domains shown)
VH: B5 VH with E1Q, V2L, L4V, T31S, N59S, K77N, K84N
VL: B4 VL
ka [1, 4]: 250000 M⁻¹ s⁻¹ | kd [1, 4]: 0.0001 s⁻¹ | binding ([1]; periplasmic fractions ('pur' = purified Fab), IL-6 form not stated): 301 | ka [3]: 210000 M⁻¹ s⁻¹ | kd [3]: 0.0001 s⁻¹ | KA [2]: 3.7e+09 M⁻¹ | Rmax [2]: 40.6 RU | ka [2]: 62700 M⁻¹ s⁻¹ | kd [2]: 1.69e-05 s⁻¹ | off-rates (range) [2]: ~10^−5 s^−1

B7: 18C11: antagonistic IL-6-specific Fab clone from immunized llama (antibody, listed as Lama glama, V domains shown)
VH: EVQLVESGGGLVQPGGSLRLSCAASGFTFSSYAMSWVRQAPGKGLEWVSAINSGGGSTSYADSVKGRFTISRDNAKNTLYLQMNSLKPEDTAVYYCAKEGDTGWKDPMYDYWGQGTQVTVSS
VL: QSVVTQPSALSVTLGQTAKITCQGGGLRSSYAHWYQQKPGQAPVLVIYDDDSRPSGIPERFSGSSSGGRATLTISGAQAEDEGDYYCQSADSSGNAAVFGGGTHLTVLG
KA [2]: 7.05e+07 M⁻¹ | Rmax [2]: 22.1 RU | ka [2]: 55200 M⁻¹ s⁻¹ | kd [2]: 0.000784 s⁻¹

B8: 18F8: antagonistic IL-6-specific Fab clone from immunized llama (antibody, listed as Lama glama, V domains shown)
VH: B7 VH with S31R, Y32N, D101Y
VL: QSALTQPSALSVTLGQTAKITCQGGSLGSRYAHWYQQKPGQAPVLVIYDDDSRPSGIPERFSGSSSGGRATLTISGAQAEDEGDYYCQSADTSEHIVFGGGTHLTVLG
KA [2]: 6.18e+07 M⁻¹ | Rmax [2]: 51.5 RU | ka [2]: 48400 M⁻¹ s⁻¹ | kd [2]: 0.000784 s⁻¹

B9: 18C9: antagonistic IL-6-specific Fab clone from immunized llama (antibody, listed as Lama glama, V domains shown)
VH: B7 VH with S31R, Y32N, D101Y
VL: LNFMLTQPSALSVTLGQTAKITCQGGSLGSRYAHWYQQKPGQAPVLVIYDDDSRPSGIPERFSGSSSGGRATLTISGAQAEDDGDYYCQSADSSGNASVFGGGTHLTVLG
KA [2]: 4.67e+07 M⁻¹ | Rmax [2]: 49.9 RU | ka [2]: 55600 M⁻¹ s⁻¹ | kd [2]: 0.00119 s⁻¹

B10: CNTO 136 (antibody, chains of the INN, looked up, V domains shown)
VH: EVQLVESGGGLVQPGGSLRLSCAASGFTFSPFAMSWVRQAPGKGLEWVAKISPGGSWTYYSDTVTGRFTISRDNAKNSLYLQMNSLRAEDTAVYYCARQLWGYYALDIWGQGTTVTVSS
VL: EIVLTQSPATLSLSPGERATLSCSASISVSYMYWYQQKPGQAPRLLIYDMSNLASGIPARFSGSGSGTDFTLTISSLEPEDFAVYYCMQWSGYPYTFGGGTKVEIK
SAA, Mouse1 (IL-6; Ab dose/mouse 0.31 μg): 158 | SAA, Mouse2 (IL-6; Ab dose/mouse 0.31 μg): 175 | SAA, Mouse3 (IL-6; Ab dose/mouse 0.31 μg): 161 | SAA, Mouse4 (IL-6; Ab dose/mouse 0.31 μg): 134 | SAA, Mouse5 (IL-6; Ab dose/mouse 0.31 μg): 183 | SAA, Mouse6 (IL-6; Ab dose/mouse 0.31 μg): 171 | SAA, Mean (IL-6; Ab dose/mouse 0.31 μg): 163.7 | SAA, Mouse1 (IL-6; Ab dose/mouse 1.25 μg): 107 | SAA, Mouse2 (IL-6; Ab dose/mouse 1.25 μg): 54 | SAA, Mouse3 (IL-6; Ab dose/mouse 1.25 μg): 67 | SAA, Mouse4 (IL-6; Ab dose/mouse 1.25 μg): 56 | SAA, Mouse5 (IL-6; Ab dose/mouse 1.25 μg): 62 | SAA, Mouse6 (IL-6; Ab dose/mouse 1.25 μg): 71 | SAA, Mean (IL-6; Ab dose/mouse 1.25 μg): 69.5 | SAA, Mouse1 (IL-6; Ab dose/mouse 5 μg): 80 | SAA, Mouse2 (IL-6; Ab dose/mouse 5 μg): 80 | SAA, Mouse3 (IL-6; Ab dose/mouse 5 μg): 45 | SAA, Mouse4 (IL-6; Ab dose/mouse 5 μg): 55 | SAA, Mouse5 (IL-6; Ab dose/mouse 5 μg): 70 | SAA, Mouse6 (IL-6; Ab dose/mouse 5 μg): 84 | SAA, Mean (IL-6; Ab dose/mouse 5 μg): 69.0

Reference: patent US11827701B2, “IL-6 binding molecules” (argenx BV, priority 2012, dated 2023)
